According to IntAct's records for PubMed 19955405:

B1: Serine/threonine-protein kinase SRK2E (Arabidopsis thaliana (Mouse-ear cress)), Q940H6 (parent)
chain: MDRPAVSGPMDLPIMHDSDRYELVKDIGSGNFGVARLMRDKQSNELVAVKYIERGEKIDENVKREIINHRSLRHPNIVRFKEVILTPTHLAIVMEYASGGELFERICNAGRFSEDEARFFFQQLISGVSYCHAMQVCHRDLKLENTLLDGSPAPRLKICDFGYSKSSVLHSQPKSTVGTPAYIAPEVLLKKEYDGKVADVWSCGVTLYVMLVGAYPFEDPEEPKNFRKTIHRILNVQYAIPDYVHISPECRHLISRIFVADPAKRISIPEIRNHEWFLKNLPADLMNDNTMTTQFDESDQPGQSIEEIMQIIAEATVPPAGTQNLNHYLTGSLDIDDDMEEDLESDLDDLDIDSSGEIVYAM
partner: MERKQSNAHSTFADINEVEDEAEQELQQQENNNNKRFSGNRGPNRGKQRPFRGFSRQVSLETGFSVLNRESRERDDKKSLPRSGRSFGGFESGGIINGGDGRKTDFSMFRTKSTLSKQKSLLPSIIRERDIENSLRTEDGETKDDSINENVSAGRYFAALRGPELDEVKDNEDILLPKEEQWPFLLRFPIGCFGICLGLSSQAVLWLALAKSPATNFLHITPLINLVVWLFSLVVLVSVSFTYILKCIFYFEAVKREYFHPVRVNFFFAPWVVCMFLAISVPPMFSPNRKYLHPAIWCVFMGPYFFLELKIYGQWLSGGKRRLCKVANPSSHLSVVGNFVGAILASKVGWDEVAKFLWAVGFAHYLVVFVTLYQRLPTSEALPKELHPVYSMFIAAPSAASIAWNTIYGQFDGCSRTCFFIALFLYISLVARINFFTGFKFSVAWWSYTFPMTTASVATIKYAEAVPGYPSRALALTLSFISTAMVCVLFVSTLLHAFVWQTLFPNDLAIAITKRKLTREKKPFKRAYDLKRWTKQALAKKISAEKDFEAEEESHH

Variants of: B1
Conditions: with slac1_arath SLAC1, Q9LD83

Variant | effect of a mutation on the interaction
D140A | disrupting interaction
